Experiment [1] has as its target T1, human CD3 on human PBMC (human, UniProt P07766 23-207).
T1 construct: Native CD3 complex on T cells in PBMC; the other chains of the complex are native; also called human CD3 (PBMC)
As to the kind of experiment: flow cytometry on human PBMC (dead cells and CD19-positive cells excluded), Penta-His Alexa Fluor 488 detection, rMFI. (In general: In flow cytometry, cells or beads pass a laser one at a time.)

For experiment [2], the target named is T2, human CD3εγ single-chain antigen (human).
T2 construct: also called scCD3εγ; His-scCD3 antigen
T2 chain: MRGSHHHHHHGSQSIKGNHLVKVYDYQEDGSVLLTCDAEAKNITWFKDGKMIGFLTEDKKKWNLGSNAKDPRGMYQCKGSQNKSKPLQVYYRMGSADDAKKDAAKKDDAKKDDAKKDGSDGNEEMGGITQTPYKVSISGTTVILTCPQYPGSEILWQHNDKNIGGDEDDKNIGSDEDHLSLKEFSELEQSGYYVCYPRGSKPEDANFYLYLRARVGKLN
As to the kind of experiment: SPR (BIAcore 3000), human CD3εγ single-chain antigen immobilized, bispecific as analyte; KD from the amount bound at each concentration. As for the experimental part: The bispecific molecule was assayed for its binding to the CD3εγ antigen using BIAcore 3000 (GE Healthcare Bio-Sciences Corp.) by a method which involves immobilizing the antigen and assaying the antibody as an analyte. […] Approximately 100 RU of the antigen was covalently bound to a sensor chip CM5 (GE Healthcare Bio-Sciences Corp.) by the amine coupling method. Immobilization treatment was performed without the addition of an antigenic protein as a reference cell. […] The bispecific molecule was prepared at a 2-fold dilution ratio from 1 μM (highest concentration) to 4 nM or at a 2-fold dilution ration from 200 nM to 1 nM. Each concentration of the bispecific molecule was added to the antigen-immobilized chip at a flow rate of […] for 25 minutes, and the amount of the bispecific molecule bound thereto was monitored. A 10 mM glycine-hydrochloric acid solution (pH 1.5) was added as a regenerating solution for 30 seconds. The data was analyzed using analytical software (BIAevaluation software, version 4.1.1) to calculate a dissociation constant KD from the amount of the bispecific molecule bound at each concentration.
(In general: Surface plasmon resonance follows binding to a sensor surface in real time, without labels.)

The target in experiment [3] is T3, human TROP2 on FaDu and HPAF-II cells (human, UniProt P09758 27-323).
T3 construct: whole, on cells
T3 sequence (looked up): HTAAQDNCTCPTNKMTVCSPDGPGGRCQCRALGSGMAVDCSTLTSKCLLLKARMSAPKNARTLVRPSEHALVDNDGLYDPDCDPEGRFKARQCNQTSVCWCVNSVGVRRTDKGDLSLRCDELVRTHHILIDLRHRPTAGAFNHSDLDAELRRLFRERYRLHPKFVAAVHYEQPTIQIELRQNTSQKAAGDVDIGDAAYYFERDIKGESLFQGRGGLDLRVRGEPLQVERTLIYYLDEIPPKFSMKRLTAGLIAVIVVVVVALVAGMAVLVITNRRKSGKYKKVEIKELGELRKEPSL
As to the kind of experiment: flow cytometry on HPAF-II cells, Penta-His Alexa Fluor 488 detection, rMFI.

In experiment [4] the target is T4, recombinant human TROP-2/human IgG Fc fused form (R&D Systems, Inc.) (human, UniProt P09758 27-274, limits assumed).
T4 construct: Bought reagent; also called TROP-2/Fc; not shown: human IgG Fc
T4 sequence (looked up): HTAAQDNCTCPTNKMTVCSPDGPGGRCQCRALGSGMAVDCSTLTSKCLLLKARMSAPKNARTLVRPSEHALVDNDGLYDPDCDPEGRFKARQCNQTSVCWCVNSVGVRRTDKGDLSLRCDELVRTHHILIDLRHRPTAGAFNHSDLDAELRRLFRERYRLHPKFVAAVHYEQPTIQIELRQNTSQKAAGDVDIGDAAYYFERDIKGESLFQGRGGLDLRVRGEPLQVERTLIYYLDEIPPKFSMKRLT
As to the kind of experiment: SPR (BIAcore 3000), TROP-2/Fc captured on anti-human IgG(Fc), bispecific as analyte, 1:1 binding model. As for the experimental part:
The bispecific molecule was assayed for its binding to TROP2 using BIAcore 3000 (GE Healthcare Bio-Sciences Corp.) by the capture method, which involves capturing the antigen by an anti-human IgG antibody and assaying the bispecific molecule as an analyte. The antigen used was recombinant human TROP-2/human IgG Fc fused form (R&D Systems, Inc.). Approximately 2000 RU of the anti-human IgG(Fc) antibody (Human Antibody Capture Kit, GE Healthcare Bio-Sciences Corp.) was covalently bound to a sensor chip CM5 (GE Healthcare Bio-Sciences Corp.) by the amine coupling method. Similarly, this antibody was immobilized onto a reference cell. The running buffer used was HBS-P (10 mM HEPES (pH 7.4), 0.15 M NaCl, and 0.005% Surfactant P20). The bispecific molecule was prepared at a 2-fold dilution ratio from 200 nM to 1 nM. A 1 μg/ml solution of the antigen was added onto the anti-human IgG(Fc) antibody-immobilized chip for approximately […]. Then, each concentration of the bispecific molecule was added at a flow rate of 30 μl/min for 300 seconds. Subsequently, the dissociation phase was monitored for 600 seconds. A 3 M magnesium chloride solution was added as a regenerating solution for 30 seconds. The data was analyzed using the 1:1 binding model of analytical software (BIAevaluation software, version 4.1.1) to calculate an association rate constant (ka), a dissociation rate constant (kd), and a dissociation constant (KD; KD=kd/ka).

Experiment [5] concerns the target T5, cynomolgus monkey CD3 on cynomolgus monkey PBMC or T cell line HSC-F (cynomolgus monkey, UniProt Q95LI5 22-198).
T5 construct: whole, on cells; Native CD3 complex on monkey T cells; also called cynomolgus monkey CD3 (PBMC); cynomolgus monkey CD3 antigen
As to the kind of experiment: flow cytometry on cynomolgus monkey PBMC, Penta-His Alexa Fluor 488 detection, rMFI.

In experiment [6] the target is T3, human TROP2 on FaDu and HPAF-II cells. As to the kind of experiment: flow cytometry on FaDu and HPAF-II cells, Penta-His Alexa Fluor 488 detection (rMFI). As for the experimental part:
The cells were washed twice with PBS containing 5% FBS, then adjusted to a concentration of 1×10⁶ cells/mL with PBS containing 5% FBS, added at a concentration of 100 μL/well to a 96-well U-bottomed microplate, and centrifuged to remove a supernatant. […] The cells were washed twice with PBS containing 5% FBS.

Experiment [7] concerns the target T6, human CD3εδ expressed on transfected Lenti-X293T cells (human, UniProt P07766 23-207; P04234 22-171).
T6 construct: Cells co-transfected with hCD3ε-pcDNA3.1 and hCD3δ-pcDNA3.1
As to the kind of experiment: flow cytometry, hybridoma supernatant on hCD3ε/hCD3δ-transfected Lenti-X293T cells.
Protocol: On the next day, hCD3ε-pcDNA3.1 and hCD3δ-pcDNA3.1 or a control pcDNA3.1-DEST was transfected to the Lenti-X293T cells using Lipofectamine 2000, and the cells were further cultured overnight at 37° C. under 5% CO₂ conditions. On the next day, the expression vector-transfected Lenti-X293T cells were treated with TrypLE Express (Thermo Fisher Scientific Inc.), washed with DMEM containing 10% FBS, and then adjusted to a concentration of 5×10⁶ cells/mL in PBS containing 5% FBS. The resulting cell suspension was used in flow cytometry analysis.
The hCD3δ-pcDNA3.1- and hCD3δ-pcDNA3.1-transfected Lenti-X293T cells or the pcDNA3.1-DEST-transfected Lenti-X293T cells were suspended by the addition of the hybridoma culture supernatant and left standing at 4° C. for 1 hour. The cells were washed once with PBS containing 5% FBS, then suspended by the addition of Anti-Rat IgG FITC conjugate (Sigma-Aldrich Corp.) diluted 500-fold with PBS containing 5% FBS, and left standing at 4° C. for 30 minutes. The cells were washed twice with PBS containing 5% FBS and then resuspended in PBS containing 5% FBS and 2 μg/ml 7-aminoactinomycin D (Molecular Probes, Inc.), followed by detection using a flow cytometer. The data was analyzed using Flowjo. After removal of 7-aminoactinomycin D-positive dead cells by gating, the FITC fluorescence intensity of live cells was plotted to a histogram.

Experiment [8] deals with T5, cynomolgus monkey CD3 on cynomolgus …. As to the kind of experiment: flow cytometry, hybridoma supernatant on cynomolgus monkey T cell line HSC-F.
Protocol: A cynomolgus monkey T cell line HSC-F (JCRB Cell Bank, No. JCRB1164) was adjusted to a concentration of 5×10⁶ cells/mL in an RPMI1640 medium containing FBS and added at a concentration of 100 μL/well to a 96-well plate. […] Then, the supernatant was removed, and the cells in the wells were washed once with PBS containing 5% FBS, then suspended by the addition of Anti-Rat IgG FITC conjugate diluted 500-fold with PBS containing 5% FBS, and left standing at 4° C. for 1 hour. The cells were washed three times with PBS containing 5% FBS and then resuspended in PBS containing 5% FBS and 2 μg/ml 7-aminoactinomycin D, followed by detection using a flow cytometer. The data was analyzed using Flowjo. After removal of 7-aminoactinomycin D-positive dead cells by gating, the FITC fluorescence intensity of live cells was plotted to a histogram.
Experiment [9] concerns the target T1, human CD3 on human PBMC. As to the kind of experiment: flow cytometry on human PBMC, Penta-His Alexa Fluor 488 detection (rMFI). The protocol:
Commercially available human PBMC (Cellular Technology Ltd. (CTL)) was adjusted to an appropriate concentration with PBS containing 5% FBS. LIVE/DEAD Fixable Near-IR Dead Cell Stain Kit (Thermo Fisher Scientific Inc.) and an anti-CD19 antibody (Beckman Coulter Inc.) were added to the cells, which were then left standing at 4° C. for 30 minutes. The cells were washed twice with PBS containing 5% FBS, then adjusted to a concentration of 1×10⁶ cells/mL with PBS containing 5% FBS, added at a concentration of 100 μL/well to a 96-well U-bottomed microplate, and centrifuged to remove a supernatant. […] The cells were washed twice with PBS containing 5% FBS. Then, Penta-His Alexa Fluor 488 (Qiagen N.V.) diluted with PBS containing 5% FBS was added at a concentration of 30 μL/well, and the plate was left standing at 4° C. for 30 minutes. The cells were washed twice with PBS containing 5% FBS and then resuspended in PBS containing 5% FBS, followed by detection using a flow cytometer (FACSCanto™ II; Becton, Dickinson and Company). The data was analyzed using Flowjo (Tree Star Inc.). The mean fluorescence intensity (MFI) of Alexa Fluor 488 in a fraction free of dead cells and CD19-positive cells was calculated. The MFI value of the scFv-unsupplemented sample was subtracted from the MFI value of the scFv-supplemented sample to calculate a relative value of MFI (rMFI).

The target of experiment [10] is T7, CD3 immobilized on a sensor chip (Example 7)-1-2).
T7 construct: the text says only 'CD3 immobilized on a sensor chip'; also called human CD3
As to the kind of experiment: SPR (BIAcore T-200), CD3 immobilized, scFv injected at five concentrations; concentration giving 1/2 Rmax. As for the experimental part:
Five different concentrations of the scFv were injected into CD3 immobilized on a sensor chip. Rmax was estimated from the resulting response, and the antibody concentration that reached 1/2 thereof was defined as the dissociation constant of the scFv for CD3.

Experiment [11] deals with T2, human CD3εγ single-chain antigen. As to the kind of experiment: complex mixed at a molar ratio of 1:2, purified by gel filtration and crystallized. A general note: In gel filtration, larger molecules generally elute earlier.
Protocol: The buffer solution was replaced with 10 mM Tris HCl (pH 7.5) and 50 mM NaCl using Amicon Ultra 15 MWCO 10K (Merck Millipore), and the resulting solution was concentrated to 3.5 mg/mL. This concentrate was purified by gel filtration chromatography using Superdex 200 10/300GL (GE Healthcare Bio-Sciences Corp.). A fraction of the complex was concentrated into approximately 4.0 mg/mL using Amicon Ultra 15 MWCO 10K (Millipore).
To 0.5 μL of the protein solution, an equal amount of a precipitant solution (0.1 M MES monohydrate (pH 6.5), 1.6 M ammonium sulfate, and 10% v/v 1,4-dioxane) was added, and the resulting solution was placed in a sealed container containing 0.05 mL of a precipitant solution so that the solutions had no contact with each other. The container was left standing at 25° C. One month later, 0.1 mm×0.05 mm×0.05 mm rod-like crystals were obtained.
In experiment [12] the target is T5, cynomolgus monkey CD3 on cynomolgus …. As to the kind of experiment: flow cytometry on cynomolgus monkey PBMC.

T5 sequence (Q95LI5 22-198): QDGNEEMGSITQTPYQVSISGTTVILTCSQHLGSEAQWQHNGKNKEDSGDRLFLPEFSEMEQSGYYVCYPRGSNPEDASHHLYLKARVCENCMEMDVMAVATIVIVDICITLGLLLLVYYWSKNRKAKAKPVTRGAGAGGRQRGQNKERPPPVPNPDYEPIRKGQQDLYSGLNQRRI

B1: T2C-0005 (HT1-11 scFv/C3E-7035 bispecific molecule) (bispecific antibody)
chain: GQVQLVQSGAEVKKPGASVKVSCKASGYTFTTAGMQWVRQAPGQGLEWMGWINTHSGVPKYAEDFKGRVTISADTSTSTAYLQLSSLKSEDTAVYYCARSGFGSSYWYFDVWGQGTLVTVSSGGGGSGGGGSGGGGSDIQMTQSPSSLSASVGDRVTITCKASQDVSTAVAWYQQKPGKAPKLLIYSASYRYTGVPSRFSGSGSGTDFTLTISSLQPEDFAVYYCQQHYITPLTFGQGTKLEIKRTGGGGSEVQLVESGGGLVQPGGSLRLSCAASGVTFNYYGMSWIRQAPGKGLEWVASITNSGGRIYYPDSVKGRFTISRENTQKTLYLQMNSLRAEDTAVYYCTLDGRDGWVAYWGQGTLVTVSSGGGGSGGGGSGGGGSMAQAVLTQPSSVSGVPGQRVTISCKRNTGNIGSNYVNWYQQLPGTAPKLLIYRDDKRPSGVPDRFSGSKSGTSASLAITGFQAEDEADYYCQSYSSGFIFGGGTKLTVLGAAAGAGGDYKDDDDKGAAAHHHHHH
notes: Tandem scFv; also called anti-TROP2-CD3 bispecific molecule
Consider B1, for which the “EC50 (read off the curve)” value (in the experiment with human CD3 on human PBMC [1]; in [3]) was about 10 nM in each case. Moreover, the Kd in experiment [2] is 126 nM; in experiment [4] it was 11.9 nM. Moreover, the binding result in experiment [5] is “binds”.

B2: HT1-11 scFv (humanized anti-TROP2 scFv) (scFv)
scFv: QVQLVQSGAEVKKPGASVKVSCKASGYTFTTAGMQWVRQAPGQGLEWMGWINTHSGVPKYAEDFKGRVTISADTSTSTAYLQLSSLKSEDTAVYYCARSGFGSSYWYFDVWGQGTLVTVSSGGGGSGGGGSGGGGSDIQMTQSPSSLSASVGDRVTITCKASQDVSTAVAWYQQKPGKAPKLLIYSASYRYTGVPSRFSGSGSGTDFTLTISSLQPEDFAVYYCQQHYITPLTFGQGTKLEIKRTGAAAHHHHHH
notes: The scFv was detected through its His tag
On to B2, for which the binding result in [6] is recorded as “binds”.

B3: T2C-0001 (HT1-11 scFv/C3E-7034 bispecific molecule) (bispecific antibody)
chain: GQVQLVQSGAEVKKPGASVKVSCKASGYTFTTAGMQWVRQAPGQGLEWMGWINTHSGVPKYAEDFKGRVTISADTSTSTAYLQLSSLKSEDTAVYYCARSGFGSSYWYFDVWGQGTLVTVSSGGGGSGGGGSGGGGSDIQMTQSPSSLSASVGDRVTITCKASQDVSTAVAWYQQKPGKAPKLLIYSASYRYTGVPSRFSGSGSGTDFTLTISSLQPEDFAVYYCQQHYITPLTFGQGTKLEIKRTGGGGSEVQLVESGGGLVQPGGSLRLSCAASGVTFNYYGMSWIRQAPGKGLEWVASITNSGGRIYYPDSVKGRFTISRENTQKTLYLQMNSLRAEDTAVYYCTLDGRDGWVAYWGQGTLVTVSSGGGGSGGGGSGGGGSNFMLTQPHSVSESPGKTVTISCKRNTGNIGSNYVNWYQQHEGSSPTTIIYRDDKRPDGVSDRFSGSIDRSSKSASLTISNLKTEDEADYFCQSYSSGFIFGGGTKLTVLGAAAGAGGDYKDDDDKGAAAHHHHHH
notes: as for B1
As for B3, the “EC50 (read off the curve)” value with human CD3 on human PBMC [1] was about 1 nM. For the same molecule, the Kd in experiment [2] came out at 13.9 nM; in experiment [4], 12.8 nM. Further, the binding result in experiment [5] is on record as “binds”.

B4: rat anti-CD3 monoclonal antibody C3-147 (antibody, IgG2b, V domains shown)
VH: EVQLVESGGGLVQPGRALKLSCVVSGVTFNYYGMSWIRQAPGKGLEWVASITNSGGRIYYPDSVKGRFTISRENTQKTLYLQMNSLRSEDTATYYCTLDGRDGWVAYWGQGTLVTVSS
VL: QFVLTQPNSVSTNLGTTVELSCKRNTGNIGSNYVNWYQQHEGRSPTTIIYRDDKRPDGVSDRFSGSIDRSSKSALLTINNVQTEDEADYFCQSYSSGFIFGGGTKLTVL
notes: probably lambda; also called rat anti-human CD3 antibody
Consider B4, for which the binding result in experiment [7] and in [8] was “binds” throughout.

B5: C3E-7034 (humanized anti-CD3 scFv) (scFv)
scFv: GEVQLVESGGGLVQPGGSLRLSCAASGVTFNYYGMSWIRQAPGKGLEWVASITNSGGRIYYPDSVKGRFTISRENTQKTLYLQMNSLRAEDTAVYYCTLDGRDGWVAYWGQGTLVTVSSGGGGSGGGGSGGGGSNFMLTQPHSVSESPGKTVTISCKRNTGNIGSNYVNWYQQHEGSSPTTIIYRDDKRPDGVSDRFSGSIDRSSKSASLTISNLKTEDEADYFCQSYSSGFIFGGGTKLTVLGAAAGAGGDYKDDDDKGAAAHHHHHH
Consider B5, for which the binding result (with human CD3 on human PBMC [9]; in experiment [11]; in experiment [12]) was “binds” each time. Besides, in experiment [10], the Kd was 4.5 nM.

The EC50 (read off the curve) is the concentration needed to bring the measured effect to its halfway point. By Kd is commonly meant the constant that tells how readily two partners part at equilibrium.

Values taken from patent publication US20190359712A1 (Daiichi Sankyo, published 2019).
